Positions of bridges follow the written chain, without caps; N, C: chain ends. No end group written: not given here.
B1: TN7 isolate A12 (peptide, not shown: large carriers)
peptide: FSCLWFPFCPD
modifications: disulfide 3-9 (inferred); also: displayed on M13 phage, coat protein fusion and flanking residues not given here
notes: Tested as phage isolate displaying the peptide (TN7 library)
B2: H03-TN9 phage isolate (peptide, not shown: large carriers)
peptide: FCWLWPAHSCH
modifications: disulfide 2-10 (inferred); also: displayed on M13 phage, coat protein fusion and flanking residues not given here
notes: Tested as phage isolate displaying the peptide (TN9 library); The synthetic peptide form is a separate molecule; also called TN9 isolate H03
B3: TN7 isolate B12 (peptide, not shown: large carriers)
peptide: LFCHFWYNCDF
modifications: disulfide 3-9 (inferred); also: displayed on M13 phage, coat protein fusion and flanking residues not given here
notes: as for B1
B4: TN9 isolate E03 (peptide, not shown: large carriers)
peptide: FCHLWWPFQCA
modifications: disulfide 2-10 (inferred); also: displayed on M13 phage, coat protein fusion and flanking residues not given here
notes: Tested as phage isolate displaying the peptide (TN9 library)
B5: TN7 isolate B11 (peptide, not shown: large carriers)
peptide: FFCALWPSCHH
modifications: disulfide 3-9 (inferred); also: displayed on M13 phage, coat protein fusion and flanking residues not given here
notes: as for B1

Key:
[1] = molecular target: VP1-VP2 (purified, recombinant B19 capsid proteins VP1 and VP2) (Human parvovirus B19, UniProt P07299); experiment: ELISA of individual phage isolates for binding to VP1-VP2; details: phage isolate 10^9 pfu per well; VP1-VP2 2 μl per well on dextrin plates; HRP anti-M13 antibody, TMB
Description: For screening libraries to isolate binding moieties for parvovirus B19, a surrogate target was obtained, consisting of purified, recombinant B19 capsid proteins VP 1 and VP2 (VP1-VP2). Suitable preparations of VP1-VP2 can be made according to methods described in U.S. Pat. No. 5,498,413 or WO 91/12269, incorporated herein by reference. Prior to screening against phage display libraries, partially purified VP1-VP2 was immobilized on dextrin-coated microtiter wells (Recti-Bind™; Pierce Chemical Co.) and tested using standard ELISA techniques, to ensure that under the screening conditions there was a low background level of phage recovered.
From convergent screens of phage display libraries, eluted phage were propagated and 376 phage isolates were selected randomly and individually tested for binding to VP1-VP2 by standard ELISA techniques, using a polyclonal anti-phage antibody to detect bound phage. Briefly, VP1-VP2 (2 μl per well) was coated on dextrin plates, blocked with BSA, and individual phage isolates were added to the wells (50 μl, 10^9 pfu per well). After washing, bound phage were incubated with the detection anti-phage antibodies (100 μl per well HRP-conjugated anti-M13 antibody in PBS-Tween (Pharmacia Inc.)). […] The bound antibody was detected by adding 100 μl per well of two-component TMB (tetramethylbenzidine; Kirkegaard & Perry). […]

VP1-VP2 = VP1-VP2 (Human parvovirus B19, UniProt P07299); experiment: Relative binding ELISA, constant phage against decreasing amounts of VP1-VP2
Method: (§1) Based on the ELISA data and the sequence similarities within each library, the 18 isolates (Tables 1-3) were selected and evaluated further with respect to their binding characteristics to VP1-VP2. Relative binding of each isolate was studied by ELISA. Each selected phage isolate, held at a constant amount, was contacted with decreasing amounts per well of VP1-VP2, the amounts coating each dextrin well varying from 2 μl down to 0.001 μl. Bound phage were detected as described before using polyclonal anti-phage antibody. […] Using VP1-VP2 at 1:10 dilution as an arbitrary point, a value for the signal was interpolated, and the relative binding strengths are reflected in Tables 1-3, above.

[2] = molecular target: parvovirus B19 capsid proteins VP1-VP2 (Human parvovirus B19, UniProt P07299); experiment: Batch depletion of B19 capsid proteins from solution by immobilized peptide affinity media, supernatant ELISA; type: binding; details: peptide immobilized on formyl 750-M resin; 1 hour at room temperature; compared with blank media; ELISA at 5-minute time point
Method: The two peptide ligands were immobilized on an aldehyde-functional methacrylate resin support (TosoHaas formyl 750-M; Montgomeryville, Pa.). The peptides were first weighed and dissolved into immobilization buffer (100 mM NaOAc, 150 mM NaCi, 0.1% Tween 20, pH 5.0). A sample of the dissolved peptides was taken for concentration analysis. The chromatography media was measured and washed twice with immobilization buffer. The media and peptide were mixed together and tumbled overnight at room temperature. After the reaction, the supernatant was analyzed for residual peptide and the resultant B19 affinity media was washed with deionized water, 1M NaCl, Tris buffer with 1M NaCl, and twice with PBS. The immobilization data are set forth below:
These parvovirus B19 affinity media were evaluated for the ability of the immobilization ligand to recognize and bind to parvovirus B19 capsid proteins VP1-VP2. Each of the prepared media was evaluated for its ability to deplete a solution of parvovirus B19 capsid proteins as compared to a blank control (media only). […] The capsid protein stock solution was prepared by diluting 30 μl of the purified capsid protein solution (Absorbance at 280 nm=2) with 320 μl of stabilizing buffer. […]
Each sample was analyzed with a standard ELISA for the presence or absence of B19 capsid proteins at ten-fold serial dilution into stabilizing buffer. […]

[3] = molecular target: T1, purified, recombinant parvovirus B19 capsid proteins VP1 and VP2 (VP1-VP2) (human parvovirus B19, UniProt P07299 1-781; P07299 1-554); experiment: phage ELISA, constant phage against decreasing VP1-VP2 coat; normalized signal interpolated at 1:10 dilution of VP1-VP2
T1 construct: Surrogate target: partially purified/purified recombinant VP1 + VP2 preparation; Made by methods of US 5,498,413 or WO 91/12269
Method: (§2) From convergent screens of phage display libraries, eluted phage were propagated and 376 phage isolates were selected randomly and individually tested for binding to VP1-VP2 by standard ELISA techniques, using a polyclonal anti-phage antibody to detect bound phage. Briefly, VP1-VP2 (2 μl per well) was coated on dextrin plates, blocked with BSA, and individual phage isolates were added to the wells (50 μl, 10⁹ pfu per well). After washing, bound phage were incubated with the detection anti-phage antibodies (100 μl per well HRP-conjugated anti-M13 antibody in PBS-Tween (Pharmacia Inc.)). Wild type phage, displaying no non-phage peptide, were employed as controls. The bound antibody was detected by adding 100 μl per well of two-component TMB (tetramethylbenzidine; Kirkegaard & Perry).
as §1

[4] = molecular target: T1, purified, recombinant parvovirus B19 …; experiment: phage ELISA; VP1-VP2 coated on dextrin plates, HRP anti-M13 detection
Method: as §2

Row | Molecule | relative binding [3] | ELISA signal [4] | other results
1 | A F C W L W P G N C L H (AFCWLWPGNCLH; not fully specified; cysteine pairing not given here) [C01] |  |  | ELISA signal [1]: 1.5; relative binding (VP1-VP2; signal interpolated at VP1-VP2 1:10 dilution, binding data normalized as percent of OD 630 nm): 44
2 | AEGTGDFCWLWPAHSCHDPGPEGGGS (cysteine pairing not given here) [H03-TN09] |  |  | depletion / clearing of B19 capsid proteins from solution [2]: able to effectively bind parvovirus B19 capsid proteins and clear them from solution
3 | AEGTGDFFCSFWHGGCDDDPGPEGGGS (cysteine pairing not given here) [A01-TN8] |  |  | depletion / clearing of B19 capsid proteins from solution [2]: able to effectively bind parvovirus B19 capsid proteins and clear them from solution; ranking of relative binding strength to VP1-VP2 (VP1-VP2; among the 18 selected phage isolates): two highest-ranking isolates
4 | B1 | 28 | 0.5 | 
5 | B2 | 85 | 0.8 | 
6 | B3 | 29 | 0.7 | 
7 | B4 | 40 | 0.8 | 
8 | B5 | 31 | 0.5 | 
